{"source": "paper PMC10990141", "molecular_target": "F-actin from rabbit skeletal muscle G-actin (rabbit) (UniProt P68135)", "experiment": "cryoEM images and 2D image averages; 0.83 uM full-length myosin-5a, 3.6 uM calmodulin, 2.1 uM F-actin, 0.20 mM ATP, 95 mM KCl, 48 uM MgCl2, 0.12 mM EGTA, 10 mM MOPS pH 7.0, 22 °C; applied within 10 s to a lacey carbon grid and flash frozen"}
{"substance": "full-length mouse myosin-5a, melanocyte-specific isoform, with calmodulin (from UniProt P0DP23 1-149) (complex)", "values": [{"measurement": "percent of the added myosin attached to actin", "value": "< 10", "unit": "%"}]}
